Test results from patent publication US20230212244A1 (IMMATICS BIOTECHNOLOGIES, published 2023).

B1: peptide SAQGSDVSLTACKV (SEQ ID NO: 151) (peptide)
peptide: SAQGSDVSLTACKV
B2: peptide SLMMTIINL (SEQ ID NO: 156) (peptide)
peptide: SLMMTIINL
B3: peptide ALLNAILHSA (SEQ ID NO: 132) (peptide)
peptide: ALLNAILHSA
B4: peptide KLPSETIFVGC (SEQ ID NO: 154) (peptide)
peptide: KLPSETIFVGC
B5: peptide ILFSEDSTKLFV (SEQ ID NO: 153) (peptide)
peptide: ILFSEDSTKLFV
B6: peptide LLNEILEQV (SEQ ID NO: 140) (peptide)
peptide: LLNEILEQV
B7: peptide FLLAEDTKV (SEQ ID NO: 13) (peptide)
peptide: FLLAEDTKV
B8: peptide TLTELRAFL (SEQ ID NO: 147) (peptide)
peptide: TLTELRAFL
B9: peptide KLQEEIPVL (SEQ ID NO: 135) (peptide)
peptide: KLQEEIPVL
B10: peptide KLLDWHPA (SEQ ID NO: 131) (peptide)
peptide: KLLDVVHPA
B11: peptide … (SEQ ID NO: 148) (peptide)
peptide: RLLENMTEVV
B12: peptide QLTEIKPLL (SEQ ID NO: 137) (peptide)
peptide: QLTEIKPLL
B13: peptide YQFDKVGILTL (SEQ ID NO: 149) (peptide)
peptide: YQFDKVGILTL
B14: peptide RLADLEALKV (SEQ ID NO: 150) (peptide)
peptide: RLADLEALKV
B15: peptide ALSDETWGL (SEQ ID NO: 146) (peptide)
peptide: ALSDETWGL
B16: peptide KQFEGTVEI (SEQ ID NO: 138) (peptide)
peptide: KQFEGTVEI
B17: peptide LLNDRIWLA (SEQ ID NO: 144) (peptide)
peptide: LLNDRIWLA
B18: peptide LQLDKEFQL (SEQ ID NO: 15) (peptide)
peptide: LQLDKEFQL
B19: peptide SLIERDLKL (SEQ ID NO: 157) (peptide)
peptide: SLIERDLKL
B20: peptide GVAGGSILKGV (SEQ ID NO: 134) (peptide)
peptide: GVAGGSILKGV
B21: peptide SLVQRVETI (SEQ ID NO: 142) (peptide)
peptide: SLVQRVETI
notes: also called ECT2-001
B22: peptide VLLNEILEQV (SEQ ID NO: 139) (peptide)
peptide: VLLNEILEQV
B23: peptide FLDKPEDVLL (SEQ ID NO: 14) (peptide)
peptide: FLDKPEDVLL
B24: peptide KLFDIFSQQV (SEQ ID NO: 136) (peptide)
peptide: KLFDIFSQQV
B25: peptide KLLAVIHEL (SEQ ID NO: 152) (peptide)
peptide: KLLAVIHEL
notes: also called RAD54B-002
B26: peptide LLLEWKQV (SEQ ID NO: 145) (peptide)
peptide: LLLEVVKQV
notes: also called LLLEVVKQV
B27: peptide RTFEKIEEV (SEQ ID NO: 133) (peptide)
peptide: RTFEKIEEV
B28: peptide AVIEHLERL (SEQ ID NO: 141) (peptide)
peptide: AVIEHLERL
B29: peptide KLSDVWKEL (SEQ ID NO: 143) (peptide)
peptide: KLSDVWKEL
B30: peptide … (SEQ ID NO: 155) (peptide)
peptide: RLLGEEVVRV
notes: also called RLLGEEVVRV

What follows are binders tested against T1, HLA-A*02:01 (human) (assay: UV-ligand exchange ELISA (anti-β2m), peptide exchange yield grade).
T1 construct: MHC class I monomer made peptide-receptive by UV cleavage of a UV-sensitive ligand; also called peptide-receptive MHC molecules
Text: Candidate peptides for T cell based therapies according to the present invention were further tested for their MHC binding capacity (affinity). The individual peptide-MHC complexes were produced by UV-ligand exchange, where a UV-sensitive peptide is cleaved upon UV-irradiation, and exchanged with the peptide of interest as analyzed. Only peptide candidates that can effectively bind and stabilize the peptide-receptive MHC molecules prevent dissociation of the MHC complexes. To determine the yield of the exchange reaction, an ELISA was performed based on the detection of the light chain (β2m) of stabilized MHC complexes. The assay was performed as generally described in Rodenko et al. (Rodenko et al., 2006).
96 well MAXISorp plates (NUNC) were coated over night with 2ug/ml streptavidin in PBS at room temperature, washed 4× and blocked for1h at 37° C. in 2% BSA containing blocking buffer. Refolded HLA-A*02:01/MLA-001 monomers served as standards, covering the range of 15-500 ng/ml. Peptide-MHC monomers of the UV-exchange reaction were diluted 100 fold in blocking buffer. Samples were incubated for 1h at 37° C., washed four times, incubated with 2 ug/ml HRP conjugated anti-β2m for 1h at 37° C., washed again and detected with TMB solution that is stopped with […]. Absorption was measured at 450 nm. Candidate peptides that show a high exchange yield (preferably higher than 50%, most preferred higher than 75 %) are generally preferred for a generation and production of antibodies or fragments thereof, and/or T cell receptors or fragments thereof, as they show sufficient avidity to the MHC molecules and prevent dissociation of the MHC complexes.

B1 and B2 cannot be ordered by peptide exchange yield: 50 to 75% for the first, ≥ 75% for the second.

B3 and B4 fall in the same range of peptide exchange yield: 50 to 75% for the first, 50 to 75% for the second.

B5 and B6 fall in the same range of peptide exchange yield: 50 to 75% for the first, 50 to 75% for the second.

B7 and B8 cannot be ordered by peptide exchange yield: 50 to 75% for the first, ≥ 75% for the second.

B9 and B10 fall in the same range of peptide exchange yield: 20 to 50% for the first, 20 to 50% for the second.

B11 and B12 fall in the same range of peptide exchange yield: 50 to 75% for the first, 50 to 75% for the second.

B13 and B14 fall in the same range of peptide exchange yield: 50 to 75% for the first, 50 to 75% for the second.

Compared with B15, B16 is higher in peptide exchange yield: 20 to 50% for the first, 50 to 75% for the second.

B17 and B18 fall in the same range of peptide exchange yield: 50 to 75% for the first, 50 to 75% for the second.

B19 and B20 cannot be ordered by peptide exchange yield: 50 to 75% for the first, ≥ 75% for the second.

B21 and B22 fall in the same range of peptide exchange yield: 50 to 75% for the first, 50 to 75% for the second.

First: B23
Second: B24
The peptide exchange yield of the first is lower: 20 to 50% for the first, 50 to 75% for the second.

First: B25
Second: B26
The peptide exchange yield of the first is lower: 20 to 50% for the first, 50 to 75% for the second.

First: B27
Second: B28
The peptide exchange yield of the first is lower: 20 to 50% for the first, ≥ 75% for the second.

B29 and B30 fall in the same range of peptide exchange yield: 50 to 75% for the first, 50 to 75% for the second.
